Data from paper PMC9828297 (Acta Biochimica et Biophysica Sinica, 2022).

Target: the molecule itself
Test: SEC

B1: polyketide cyclase from Mycobacterium tuberculosis (MtPC) (natural protein)
chain: MGSTPPRTPQEVFAHHGQALAAGDLDEIVADYADDSFVITPAGIARGKEGIRQLFVKLLDDIPNALWDLKTQIFEGDILFLEWTANSAVSRVDDGVDTFVFRDGTIWAHTVRYTPHPKT
B1 was tested, and the “stoichiometry N” value was 2.
